Target: VEGF:sFlk-1 complex (human; mouse) (UniProt P15692)
Test: capture ELISA: biotinylated sFlk-1 complexed with VEGF titrated onto wells coated with irrelevant IgM, concentration giving 50% maximal binding; extrapolated value

Chain of VEGF:sFlk-1 complex (human; mouse) (P15692 other isoform, or with tags, fused parts or gaps limits assumed, chain 1 of 2): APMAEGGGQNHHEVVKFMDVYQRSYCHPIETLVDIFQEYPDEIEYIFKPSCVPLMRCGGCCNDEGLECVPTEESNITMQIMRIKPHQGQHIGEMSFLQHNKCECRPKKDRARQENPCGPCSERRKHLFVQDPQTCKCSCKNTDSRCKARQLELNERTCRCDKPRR
Chain of VEGF:sFlk-1 complex (human; mouse) (P35918 20-762 limits assumed, chain 2 of 2, further chain): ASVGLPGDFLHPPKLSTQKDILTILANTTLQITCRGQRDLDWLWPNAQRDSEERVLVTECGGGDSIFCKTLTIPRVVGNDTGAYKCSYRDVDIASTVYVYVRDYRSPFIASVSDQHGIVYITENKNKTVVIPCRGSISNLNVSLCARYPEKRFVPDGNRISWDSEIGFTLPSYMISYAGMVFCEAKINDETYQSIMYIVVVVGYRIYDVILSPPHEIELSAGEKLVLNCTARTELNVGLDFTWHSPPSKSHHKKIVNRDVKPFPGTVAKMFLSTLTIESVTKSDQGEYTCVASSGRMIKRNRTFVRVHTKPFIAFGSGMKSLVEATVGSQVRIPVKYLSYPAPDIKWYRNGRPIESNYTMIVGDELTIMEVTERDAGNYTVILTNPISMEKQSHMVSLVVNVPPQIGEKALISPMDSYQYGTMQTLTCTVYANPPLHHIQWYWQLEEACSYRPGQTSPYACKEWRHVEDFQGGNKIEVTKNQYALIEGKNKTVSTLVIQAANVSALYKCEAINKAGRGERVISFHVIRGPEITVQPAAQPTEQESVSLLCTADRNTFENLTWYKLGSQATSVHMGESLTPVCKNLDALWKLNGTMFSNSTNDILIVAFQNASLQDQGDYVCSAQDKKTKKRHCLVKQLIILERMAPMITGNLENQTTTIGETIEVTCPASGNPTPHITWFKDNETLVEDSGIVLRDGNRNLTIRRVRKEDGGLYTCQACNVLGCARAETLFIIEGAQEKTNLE

EC50: 600 nM
Substance: irrelevant IgM (negative control of Table 2) (antibody)

From US20030175276A1
